Data published in paper PMC8602281 (Nature Communications, 2021).

Molecular target: receptor-binding domain (RBD) of SARS-CoV-2 (SARS-CoV-2, UniProt P0DTC2)
Experiment: SPR
Details: both partners purified

B1: trastuzumab Fab with LCB1 insertion (Fab)
VH: EVQLVESGGGLVQPGGSLRLSCAASGFNIKDTYIHWVRQAPGKGLEWVARIYPTNGYTRYADSVKGRFTISADTSKNTAYLQMNSLRAEDTAVYYCSRWGGDGGSDKEWILQKIYEIMRLLDELGHAEASMRVSDLIYEFMKKGGSGFYAMDYWGQGTLVTVSS
VL: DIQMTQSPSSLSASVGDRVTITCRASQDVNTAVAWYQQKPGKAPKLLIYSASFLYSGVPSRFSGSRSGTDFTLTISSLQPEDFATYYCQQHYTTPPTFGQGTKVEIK
notes: also called trast-LCB1; trastuzumab +LCB1
In the case of B1, the Kd is reported as 0.9 nM.
